Data from article doi:10.1101/2023.12.09.570830.

Target: UmbC1 (untagged, in the Umb1 particle) (Streptomyces coelicolor A3(2) (endogenous))
Test: cryo-EM structure

**Q.** Which stoichiometry N does the source give for UmbB1 (natural protein) here?
**A.** Its stoichiometry N is 5.
